Source: patent US20260227403A1 (HENRY M JACKSON FOUNDATION FOR THE ADVANCEMENT OF MILITARY …, published 2026)

What was measured:
[1] = molecular target: T1, overlapping peptide P3 (12 amino acids, FIG. 3 panel A) (human); assay: ELISA: 500 ng peptide coated per well, 29E4 titrated 0-1000 ng/mL, HRP goat anti-rabbit Ig 1:16,000, ABS 450 nm, duplicates
T1 construct: The overlapping 12-mer is meant here
T1 peptide: MSEPNIPFPPQG
Description: (§1) HRP Goat anti-rabbit Ig was applied at 1:16,000 dilution in all reactions.
(§2) Peptides were synthesized to achieve ≥70% HPLC purity by a commercial vendor (GenScript Biotech, Piscataway, NJ). Peptides were reconstituted in either water, or with addition of acetonitrile, methanol, 10% acetic acid, or DMSO, depending on the overall charge of each peptide. Key residues required for mAb binding were probed by ELISA using overlapping peptides, truncated peptides and alanine substituted peptides. Reactions were performed in duplicate using NUNC 96-well flatbottom MaxiSorp plates (Thermo Scientific). After coating each well with 500 ng of peptide in 100 μL coating buffer (50 mM NaHCO₃, pH 9.6), the plates were sealed and incubated at 4° C. overnight. […] Plates were then washed once with wash buffer, incubated with 100 μL mAb 29E4 (serially diluted from 1 mg/mL) for 1 hour at 37° C. Plates were further washed four times with wash buffer, and then incubated at 37° C. with 100 μL of a horse radish peroxidase (HRP)-conjugated secondary antibody against the primary antibody, diluted 1:16,000 according to manufacturer's protocols (KPL, Inc., Gaithersburg, MD). After washing four times with wash buffer, 100 μL of K-Blue Aqueous TMB substrate (Neogen, Lexington, KY) was added to the plates and incubated uncovered for 30 minutes at room temperature. To stop the reaction, 100 μL of 2 N Sulphuric acid was added to each well and absorbance were measured immediately at 450 nm. All dilutions of reagents were performed in ELISA diluent (20% NGS in 1×PBS with 0.1% Triton-X 100).

[2] = molecular target: T2, overlapping peptide P4 (12 amino acids, FIG. 3 panel A) (human); assay: as above
T2 peptide: PNIPFPPQGFKQ
Description: as §1, §2

[3] = molecular target: T3, overlapping peptide P5 (12 amino acids, FIG. 3 panel A) (human); assay: as above
T3 construct: The overlapping 12-mer is meant here
T3 peptide: PFPPQGFKQEYH
Description: as §1, §2

[4] = molecular target: T4, overlapping peptide P6 (12 amino acids, FIG. 3 panel A) (human); assay: as above
T4 construct: The overlapping 12-mer is meant here
T4 peptide: PQGFKQEYHDPV
Description: as §1, §2

[5] = molecular target: T5, overlapping peptide P7 (12 amino acids, FIG. 3 panel A) (human); assay: as above
T5 construct: The overlapping 12-mer is meant here
T5 peptide: FKQEYHDPVYEH
Description: as §1, §2

[6] = molecular target: T6, ETV1 immunogenic peptide P1 (human); assay: as above
T6 construct: 27 amino acid peptide, ETV1 residues 212-238; also called immunogen peptide; ETV1 P1 peptide
Description: as §1, §2

[7] = molecular target: T7, P11 (alanine substituted, FIG. 3 panel E); assay: ELISA: 500 ng peptide coated per well, 29E4 at 40 ng/mL, HRP goat anti-rabbit Ig 1:16,000, ABS 450 nm, duplicates [CONT. 2]
T7 construct: also called P221 to alanine
Description: as §1, §2

[8] = molecular target: T8, alanine substituted peptide with P223 replaced by alanine (P13 of FIG. 3 panel E) (human); assay: as above
T8 construct: The text names only the residue P223
Description: as §1, §2

[9] = molecular target: T9, P14 (alanine substituted, FIG. 3 panel E); assay: as above
T9 construct: also called P224 to alanine
Description: as §1, §2

[10] = molecular target: T10, P6 (alanine substituted, FIG. 3 panel E); assay: as above
T10 construct: not the overlapping peptide P6 of panel A; also called S216 to alanine
Description: as §1, §2

[11] = molecular target: T11, P26 (alanine substituted, FIG. 3 panel E); assay: as above
T11 construct: also called Y236 to alanine
Description: as §1, §2

T8 sequence (peptide, as listed by the source): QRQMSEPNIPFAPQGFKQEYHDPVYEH
T9 sequence (peptide, as listed by the source): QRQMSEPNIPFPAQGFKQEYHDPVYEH
T7 sequence (peptide, as listed by the source): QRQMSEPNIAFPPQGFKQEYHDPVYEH
T6 sequence (peptide, as listed by the source): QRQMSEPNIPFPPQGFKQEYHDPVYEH
T10 sequence (peptide, as listed by the source): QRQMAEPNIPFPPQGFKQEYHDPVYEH
T11 sequence (peptide, as listed by the source): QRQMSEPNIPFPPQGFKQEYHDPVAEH

B1: ETV1 rabbit monoclonal antibody (29E4) (antibody, V domains shown)
VH: QELEESGGDLVKPGASLTLTCTASGFFFSAENHICWVRQAPGKGLEWIGCVYIGSYVGGSGDPYYASWAKGRFTISKTSSTTVTLQMSSLTAADTATYFCARDLGSLWGPGTLVTVSS
VL: DVVMTQTASSVSAAVGGTVTIACQSSQSVYDNNNLAWFQQKPGQPPKRLIYSASTLASGVSSRFKGSGYGTQFTLTISDVQCDDAATYYCVGAFSGYIFVFGGGTEVVVK
notes: constant regions are not; also called 29E4 mAb; ETV1 29E4 mAb
- binding result [1]: binds
- EC50 (read off the curve) [2]: ~0.1 mg/L
- binding result [3]: binds
- binding result [4]: no binding (tested: 1000 ng/mL)
- binding result [5]: no binding (tested: 1000 ng/mL)
- EC50 (read off the curve) [6]: ~0.02 mg/L
- binding result [7]: binds
- binding result [8]: binds
- binding result [9]: binds
- binding result [10]: binds
- binding result [11]: binds
